Assay results as given in patent US6995240.

Biological target: HLA-DR on rheumatoid synovial fluid mononuclear cells (human)
Assay: cell-based or functional assay

Substance “anti-HLA-DR monoclonal antibody L243 (ATCC)” has an inhibition of rheumatoid synovial fluid T cell proliferation to p78 of 66 to 84%.
